Results on four molecules are retold here after publication PMC5789848 (2018).

Assay [1] deals with T1, GST-Tax_(CACA) (HTLV-1 Tax with C23 and C29 changed to alanine, N-terminal GST fusion) (HTLV-1, UniProt P03409 1-353, C23A | C29A). As to the kind of experiment: BLI. On the technique in general: BLI is a label-free optical method that tracks binding on a fibre tip over time.
The target of assay [2] is T1, GST-Tax_(CACA) (HTLV-1 Tax with C23 and …). Put plainly: BLI. This is another data set of the same source.

Numbering of substitutions follows the chain as printed. Names may count otherwise.

Usually koff stands for a measure of how fast the partners let go of each other. Low readings indicate slow dissociation, high ones fast dissociation. Broadly, the Kd is the constant that tells how readily two partners part at equilibrium. Read a low Kd as a tighter complex.

B1: UPF1-HD_(DE636AA), histidine-tagged (domain or fragment)
chain: RYEDAYQYQNIFGPLVKLEADYDKKLKESQTQDNITVRWDLGLNKKRIAYFTLPKTDSDMRLMQGDEICLRYKGDLAPLWKGIGHVIKVPDNYGDEIAIELRSSVGAPVEVTHNFQVDFVWKSTSFDRMQSALKTFAVDETSVSGYIYHKLLGHEVEDVIIKCQLPKRFTAQGLPDLNHSQVYAVKTVLQRPLSLIQGPPGTGKTVTSATIVYHLARQGNGPVLVCAPSNIAVDQLTEKIHQTGLKVVRLCAKSREAIDSPVSFLALHNQIRNMDSMPELQKLQQLKDETGELSSADEKRYRALKRTAERELLMNADVICCTCVGAGDPRLAKMQFRSILIAASTQATEPECMVPVVLGAKQLILVGDHCQLGPVVMCKKAAKAGLSQSLFERLVVLGIRPIRLQVQYRMHPALSAFPSNIFYEGSLQNGVTAADRVKKGFDFQWPQPDKPMFFYVTQGQEEIASSGTSYLNRTEAANVEKITTKLLKAGAKPDQIGIITPYEGQRSYLVQYMQFSGSLHTKLYQEVEIASVDAFQGREKDFIILSCVRANEHQGIGFLNDPRRLNVALTRARYGVIIVGNPKALSKQPLWNHLLNYYKEQKVLVEGPLNNLRESLMQFS
Take B1: in assay [1], the koff stood at 0.000283 s⁻¹. Further, in assay [2], the Kd is 31.4 nM.

B2: UPF1 helicase core domain (UPF1-HD; aa 295-914), C-terminal hexahistidine (domain or fragment)
chain: B1 chain with A342D, A343E
B2: the off-rate (koff) in assay [1] amounted to 0.00038 s⁻¹. This molecule had a Kd in assay [2] of 16.6 nM.

B3: UPF1-HD_(R843S), histidine-tagged (domain or fragment)
chain: B1 chain with A342D, A343E, R549S
In turn, B3 gave a koff in assay [1] of 0.000877 s⁻¹. Further, in assay [2], the Kd came to 66.6 nM.

B4: UPF1-HD_(R843C), histidine-tagged (domain or fragment)
chain: B1 chain with A342D, A343E, R549C
In the case of B4, in assay [1], the koff stood at 0.000437 s⁻¹. The molecule also came in with a Kd in assay [2] of 53.8 nM.
